# Laboratory results reported in publication PMC6284106.
# pKd: −log10 of the molar value.
# Columns and labels:
# [1] = target: human IL-2Rβγ heterodimeric Fc fusion (human) (UniProt P14784)
# [2] = target: cynomolgus IL-2Rβγ heterodimeric Fc fusion (cynomolgus) (UniProt Q38J85); assay: SPR; Biacore T200; biotinylated IL2Rβγ-Fc heterodimer immobilised on streptavidin chips; fusion proteins injected 1.2-300 nM for 2 min, dissociation 10 min; regeneration 3 M MgCl2; global 1:1 model, 'apparent' KD (bivalent binding of the dimeric fusions)
# [3] = target: human IL-2Rβγ heterodimeric Fc fusion (human) (UniProt P14784); assay: as above
# [4] = target: cynomolgus IL-2Rα, monomeric, his-tagged (cynomolgus); assay: SPR; Biacore T200; monomeric his-tagged IL-2Rα immobilised by amine coupling on CM5 chips; 2-fold dilution series (0.41 nM-300 nM) of the IL-2 fusion protein injected for 90 s, dissociation 3 min; regeneration 10 mM glycine pH 1.5; steady state model
# [5] = target: human IL-2Rα, monomeric, his-tagged (human) (UniProt P01589); assay: as above
# Sequence of UniProt P01589 (P01589 22-272): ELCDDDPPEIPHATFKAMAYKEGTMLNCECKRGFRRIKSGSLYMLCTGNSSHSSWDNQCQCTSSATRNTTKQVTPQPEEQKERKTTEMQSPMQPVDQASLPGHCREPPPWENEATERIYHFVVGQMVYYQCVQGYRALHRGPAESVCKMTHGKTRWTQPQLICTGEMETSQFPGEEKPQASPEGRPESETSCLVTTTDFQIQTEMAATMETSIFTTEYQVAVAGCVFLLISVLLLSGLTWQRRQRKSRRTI
# [6] = target: human IL-2Rβγ heterodimeric Fc fusion (human) (UniProt P14784); remark: listed apart in the source
substance,measurement,setting,value
IgG-(IL-2)2 (from UniProt P60568 21-153),"EC50 of pSTAT5 induction in memory and naïve Tregs, human whole blood",[1],0.3 pM
same,pKd,[2],10.40
same,pKd,[3],11.52
"IgG-(IL-2)2 (wild-type dimer: two human IL-2 fused to a non-targeted, effector-silent human IgG1) (from UniProt P60568 21-153)",pKd,[4],7.82
same,pKd,[5],8.30
IgG-(IL-2N88D)2 (from UniProt P60568 21-153),"EC50 of pSTAT5 induction in CD4+ effector memory T cells, human whole blood",[6],> 10000 pM
same,"EC50 of pSTAT5 induction in CD4+ naïve Tregs, human whole blood",[6],18 pM
same,"EC50 of pSTAT5 induction in CD56bright NK cells, human whole blood",[6],> 1000 pM
same,pKd,[2],9.24
same,pKd,[3],9.62
"IgG-(IL-2N88D)2 (two human IL-2 N88D muteins fused to a non-targeted, effector-silent human IgG1) (from UniProt P60568 21-153)",pKd,[4],7.52
same,pKd,[5],7.66
IgG-IL-2 (from UniProt P60568 21-153),pKd,[2],9.74
same,pKd,[3],10.40
"IgG-IL-2 (wild-type monomer: one human IL-2 fused to a non-targeted, effector-silent human IgG1) (from UniProt P60568 21-153)",pKd,[4],7.52
same,pKd,[5],7.82
